[NapdU] = 5-(N-naphthylcarboxyamide)-2'-deoxyuridine
Assays:
[1] = tested on: CD166 expressing cells isolated from ovarian cancer stem cells; experiment: Cell adhesion experiment, CD166 expressing ovarian cancer stem cells; assay type: cell-based; details: aptamer 500 nM, 1 hour, collagen-coated plate, FIG. 21
Description: The effect of the CD166 aptamer on cell adhesion ability was confirmed using the CD166 aptamers AT3, AT4 and AT5. Specifically, CD166 expressing cells were isolated from ovarian cancer stem cells using the CD166 FACS antibody. Cell adhesion experiment of the CD166 aptamer was performed using the isolated cells. First, […] blocked with 20 μg/ml of collagen for 1 hour. After blocking, 0.1% bovine serum albumin (BSA) was added and incubated for 1 hour to limit non-specific binding. The isolated cells were each exposed to the CD166 aptamer (500 nM) for 1 hour and then fixed with 4% formaldehyde. The fixed cells were stained with hoest33342.

[2] = tested on: ovarian cancer stem cell line A2780-SP cells; experiment: Affinity of CD166 aptamer to ovarian cancer stem cells by flow cytometry (FACS); assay type: binding; details: for affinity: as found in Example 8 (FACS)
Description: It was confirmed whether the CD166 aptamer constructed in Example 7 recognized ovarian cancer cells and ovarian cancer stem cells. The following experiment was performed to analyze the interaction between the CD166 aptamer and the ovarian cancer cell line A2780 cells. First, each of the CD166 aptamer (AT-1, AT-2, AT-3, AT-4, AT-5 and AT-6) was dissolved in sterile tertiary water and then heated at 95° C. for 5 minutes. After heating, it was cooled to 25° C. The aptamer was added to the ovarian cancer cell line A2780 cells at a concentration of 500 nM, and then the cells were cultured at room temperature and stained. Thereafter, the cells reacted with the CD166 aptamer were analyzed using a flow cytometer (fluorescence activated cell sorter, FACS), and the results are shown in FIG. 18.
In addition, in the same manner as described above, the ovarian cancer stem cell line A2780-SP cells were reacted with the CD166 aptamer, and then FACS was performed, and the results are shown in FIG. 19.
The affinity of the CD166 aptamer AT-5 and the CD166 FACS antibody (PE Mouse Anti-Human CD166, Cat:559263, BD Pharminggen) as the control to the ovarian cancer stem cell line A2780-SP cells was compared.

[3] = tested on: focal adhesion signaling pathway in patient-derived ovarian cancer stem cells; experiment: Focal adhesion signaling pathway by Western blotting, patient-derived ovarian cancer stem cells; assay type: cell-based; details: aptamer 1 hour, FIG. 39
Excerpt: (§1) CD166 expression was inhibited using siRNA in the ovarian cancer stem cell line A2780-SP, and the focal adhesion signaling pathway was confirmed in CD166 expression-inhibited cells through Western blotting. Specifically, in order to inhibit the expression of CD166, the control (si Control) (5′-UUCUCCGAACGUGUCACGUTT-3′ (SEQ ID NO: 23); 5′-ACGUGACACGUUCGGAGAATT-3′ (SEQ ID NO: 24) and si CD166 (5′-AAGCCCGAUGGCUCCCCAGUAUU-3′ (SEQ ID NO: 25); 5′-AAUACUGGGGAGCCAUCGGGCUU-3′ (SEQ ID NO: 26) were constructed. The expression of CD166 was inhibited by reacting the constructed siRNA and the ovarian cancer stem cell line A2780-SP cells, and the cells were cultured after inhibition of expression. After culturing for 48 hours, the cells were collected, and protein expression of FAK, SRC, Paxillin and CD44, which are known as major genes of the focal adhesion signaling pathway, was confirmed through Western blotting. Antibodies against CD166 (ab109215, Abcam), CD44 (5640S, Cell Signaling Technology), p-PAXILLIN (2541S, Cell Signaling Technology), p-SRC (2101S, Cell Signaling Technology), p-FAK (3284S, Cell Signaling Technology), FAK (3285S, Cell Signaling Technology) and GAPDH (MAB374, EMD Milliore Corp, Billerica, MA) were used as primary antibodies. The results of confirming the focal adhesion signaling pathway inhibitory activity in CD166 expression-inhibited cells are shown in FIG. 14.
The patient-derived ovarian cancer stem cells were reacted with the CD166 aptamers AT-3 and AT-5 for 1 hour, respectively, and then the focal adhesion signaling pathway was confirmed in CD166 expression-inhibited cells through Western blotting. The Western blotting was performed in the same manner as in Example 5.

[4] = tested on: CD166-high cells of ovarian cancer stem cell line A2780-SP; experiment: Tumor formation from aptamer-treated A2780-SP cells inoculated subcutaneously; assay type: in vivo, nude mice
Description: The effect of the CD166 aptamer AT-5 on tumor formation was confirmed. Specifically, cells in which the expression CD166 is high were isolated from the ovarian cancer stem cell line A2780-SP using a flow cytometer (ARIA3). The isolated cells were reacted with the CD166 aptamer AT-5 for 1 hour, respectively. The cells reacted with the aptamer (1×10^5 cells) were inoculated subcutaneously into nude mice. At this time, the aptamer-untreated cells were inoculated on the left side of nude mice, and the CD166 aptamer AT-5-treated cells were inoculated on the right side of nude mice. After inoculation, the tumor formation size was measured from the 18th day. Nude mice were euthanized on the 38th day of inoculation. Tumors were isolated from nude mice, and finally, the weight and size of the tumors were measured. The results of observation of the isolated tumors are shown in FIG. 26, the results of measuring the size of the tumors are shown in FIG. 27, and the results of measuring the weight of the tumors are shown in FIG. 28, respectively.

[5] = tested on: patient-derived ovarian cancer stem cells; experiment: Affinity of CD166 aptamer to patient-derived ovarian cancer stem cells (FACS); assay type: binding; details: FIG. 36A
[6] = tested on: focal adhesion signaling pathway in mesenchymal stem cells; experiment: Focal adhesion signaling pathway by Western blotting, mesenchymal stem cells; assay type: cell-based; details: aptamer 1 hour, normal stem cells, FIG. 44
Excerpt: as §1
The mesenchymal stem cells were reacted with the CD166 aptamer AT-5 for 1 hour, respectively, and then the focal adhesion signaling pathway was confirmed in CD166 expression-inhibited cells through Western blotting. The Western blotting was performed in the same manner as in Example 5. In addition, the focal adhesion signaling pathway by CD166 expression inhibition in the mesenchymal stem cells was confirmed by the method of Example 4, and the results are shown in FIG. 44.

Molecule | cell adhesion [1] | affinity [2] | expression of p-PAXILLIN [3] | expression of p-SRC [3] | expression of the p-FAK Y925 site [3] | tumor formation ([4]; cells pre-reacted with aptamer 1 hour, 1×10^5 cells subcutaneous, nude mice, FIG. 26) | size of the tumor ([4]; vs aptamer untreated group, day 18 to 38, FIG. 27) | weight of the tumor ([4]; vs control, day 38, FIG. 28) | interaction with patient-derived ovarian cancer stem cells, signal intensity [5] | expression of p-PAXILLIN [6] | expression of p-SRC [6] | expression of the p-FAK Y925 site [6] | specificity of binding to ovarian cancer stem cells among the CD166 aptamers ([2]; 500 nM, FACS, FIG. 19)
AT4: 76-mer CD166 aptamer, N = NapdU: TCAGCCGCCAGCCAGTTCCNNCNAGAGNCANGCACGNNANCGGACCNGNCGGCGAANGGACCANANCACCACAGAG (nucleic acid, DNA, [NapdU] at 20, 21, 23, 28, 31, 37, 38, 40, 47, 49, 57, 64, 66, backbone not given here) DNA: TCAGCCGCCAGCCAGTTCCUUCUAGAGUCAUGCACGUUAUCGGACCUGUCGGCGAAUGGACCAUAUCACCACAGAG | reduced | high affinity | – | – | – | – | – | – | – | – | – | – | –
AT5: 76-mer CD166 aptamer, N = NapdU: TCAGCCGCCAGCCAGTTCANNNGANAAAGCNCCGNNANCGGGCCCCNNGNAGAGNCANGACCAGAGCACCACAGAG (nucleic acid, DNA, [NapdU] at 20, 21, 22, 25, 31, 35, 36, 38, 47, 48, 50, 55, 58, backbone not given here) DNA: TCAGCCGCCAGCCAGTTCAUUUGAUAAAGCUCCGUUAUCGGGCCCCUUGUAGAGUCAUGACCAGAGCACCACAGAG | reduced | high affinity | inhibited | inhibited | reduced | inhibited | smaller | reduced significantly | the signal intensity is high | not affected | not affected | not affected | most specifically binds

Reference: patent publication US12674167B2, “Aptamer specifically binding to cancer stem cells, and use thereof” (HiCELL Tech, priority 2019, dated 2026)
